US20260242839A1, “GLYCOSIDE PRODUCT BIOSYNTHESIS AND RECOVERY” (Manus Bio Inc., priority 2023, published 2026)

System: mogrol
Assay: primary glycosylation at C3 and C24 hydroxyls of mogrol by cells expressing UGT enzymes
Format: cell-based, E. coli
Details: mogrol fed; 37° C., 48 hrs; LCMS/MS
Method: Specifically, mogrol was fed to cells expressing various UGT enzymes. Reactions were incubated at 37° C. for 48 hrs. Products were quantified by LCMS/MS with authentic standards of each compound.

Molecule	C3 O-Glucosylation	C24 O-Glucosylation
SEQ ID NO: 82: UGT73F24 (Glycyrrhiza uralensis) (protein, listed as Glycyrrhiza sp.) MADVAEEQPLKIYFIPYLAAGHMIPLCDIATLFASRGHHVTIITTPSNAQTLRESHHFRVQTIQFPSQEVGLPAGVQNLTAVTNLDDSYKIYHATMLLRKHIEDFVERDPPDCIVADFLFPWVDDVATKLHIPRLVFNGFTLFTICAMESHKAHPLPVDAASGSFVIPDFPHHVTINSTPPKRTKEFVDPLLTEAFKSHGFLINSFVELDGEECVEHYERITGGHKAWHLGPAFLVHRTAQDRGEKSVVSTQECLSWLDSKRDNSVLYICFGTICYFPDKQLYEIASAIEASGHEFIWVVPEKRGNADESEEEKEKWLPKGFEERNNGKKGMIIRGWAPQVAILGHPAVGGFLTHCGWNSTVEAVSAGVPMITWPVHSDQYFNEKLITQVRGIGVEVGAEEWIVTAFRETEKLVGRDRIERAVRRVMDGGDEAVQIRRRARELGEMARQAVQEGGSSHTNLTALINDLKRWRDSKQLN	No	Yes
SEQ ID NO: 17: SrUGT85C2 (Stevia rebaudiana) (protein, listed as Stevia rebaudiana) MDAMATTEKKPHVIFIPFPAQSHIKAMLKLAQLLHHKGLQITFVNTDFIHNQFLESSGPHCLDGAPGFRFETIPDGVSHSPEASIPIRESLLRSIETNFLDRFIDLVTKLPDPPTCIISDGFLSVFTIDAAKKLGIPVMMYWTLAACGFMGFYHIHSLIEKGFAPLKDASYLTNGYLDTVIDWVPGMEGIRLKDFPLDWSTDLNDKVLMFTTEAPQRSHKVSHHIFHTFDELEPSIIKTLSLRYNHIYTIGPLQLLLDQIPEEKKQTGITSLHGYSLVKEEPECFQWLQSKEPNSVVYVNFGSTTVMSLEDMTEFGWGLANSNHYFLWIIRSNLVIGENAVLPPELEEHIKKRGFIASWCSQEKVLKHPSVGGFLTHCGWGSTIESLSAGVPMICWPYSWDQLTNCRYICKEWEVGLEMGTKVKRDEVKRLVQELMGEGGHKMRNKAKDWKEKARIAIAPNGSSSLNIDKMVKEITVLARN	No	Yes
SEQ ID NO: 80: SrUGT73E1, with optional His tag (Stevia rebaudiana) (protein, listed as Stevia rebaudiana, optional His tag) MAHHHHHHVGTGSNDDDDKSPDPNWASTSELVFIPSPGAGHLPPTVELAKLLLHRDQRLSVTIIVMNLWLGPKHNTEARPCVPSLRFVDIPCDESTMALISPNTFISAFVEHHKPRVRDIVRGIIESDSVRLAGFVLDMFCMPMSDVANEFGVPSYNYFTSGAATLGLMFHLQWKRDHEGYDATELKNSDTELSVPSYVNPVPAKVLPEVVLDKEGGSKMFLDLAERIRESKGIIVNSCQAIERHALEYLSSNNNGIPPVFPVGPILNLENKKDDAKTDEIMRWLNEQPESSVVFLCFGSMGSFNEKQVKEIAVAIERSGHRFLWSLRRPTPKEKIEFPKEYENLEEVLPEGFLKRTSSIGKVIGWAPQMAVLSHPSVGGFVSHCGWNSTLESMWCGVPMAAWPLYAEQTLNAFLLVVELGLAAEIRMDYRTDTKAGYDGGMEVTVEEIEDGIRKLMSDGEIRNKVKDVKEKSRAAVVEGGSSYASIGKFIEHVSNVTI	No	Yes
SEQ ID NO: 46: CmaUGT1 (Cucurbita maxima) (protein, listed as Cucurbita maxima) MELSHTHHVLLFPFPAKGHIKPFFSLAQLLCNAGLRVTFLNTDHHHRRIHDLNRLAAQLPTLHFDSVSDGLPPDEPRNVFDGKLYESIRQVTSSLFRELLVSYNNGTSSGRPPITCVITDVMFRFPIDIAEELGIPVFTFSTFSARFLFLIFWIPKLLEDGQLRYPEQELHGVPGAEGLIRWKDLPGFWSVEDVADWDPMNFVNQTLATSRSSGLILNTFDELEAPFLTSLSKIYKKIYSLGPINSLLKNFQSQPQYNLWKEDHSCMAWLDSQPRKSVVFVSFGSVVKLTSRQLMEFWNGLVNSGMPFLLVLRSDVIEAGEEVVREIMERKAEGRWVIVSWAPQEEVLAHDAVGGFLTHSGWNSTLESLAAGVPMISWPQIGDQTSNSTWISKVWRIGLQLEDGFDSSTIETMVRSIMDQTMEKTVAELAERAKNRASKNGTSYRNFQTLIQDITNIIETHI	Yes	No
